Source: patent US20050079151A1, “Therapeutic agents for apoptosis-related diseases” (priority 1998, published 2005)

Test system: hippocampal region CA1 neurocytes
Experiment: Apoptosis-inhibitory effect in vivo, transient forebrain ischemia, administration before ischemic damage
Parameters: species or system Mongolian gerbil
Conditions: for numbers of surviving nuclei contained in the CA1 region per unit length of CA1: mean±standard deviation, saline 18±25, Sham-op 265±38; for number of nuclei showing apoptosis positive reaction (TUNEL) against the total number of cells: saline 69.7±17.0, Sham-op 0.0±0.0; for numbers of neurocytes in CA1: 2 μg MK, saline 10±10, sham-op 263±31
Source text: (1) Six to 16 male Mongolian gerbils (6- to 8-week old, body weight: 60 to 80 g) for each group were housed in “HONEY MATIC M-3” (KIMURA MEDICAL INSTRUMENT LTD.), an anesthetic delivery device for Fluothane, and the container was filled with an appropriate amount of inhalation anesthetic “Fluothane” (halothane according to Japanese Phamacopeia). The anesthetized animals were fixed on an operating table equipped with an injection holder (NARISHINGE SCEITIFIC INSTRUMENT LAB.; TYPE SR-5N, No. 97024). After the head was subjected to midline incision, a hole for inserting a syringe of an appropriate size was made by a dental drill at a site 2 mm away from the bregma towards the left eyeball direction. Through this hole, 2 μl of 0.25 mg/ml, 0.5 mg/ml or 1 mg/ml MK solutions (0.5 μg, 1.0 μg, 2.0 μg ) (in physiological saline) were seperately injected into the ventricle with a microsyringe (HAMILTON MICROLITER #701). As control groups, a saline injected group and the sham operated (Sham-op) group were prepared. After injection into the ventricle, the mice were left for 4 min and the operated site was sutured. The chest was subjected to midline incision to expose both right and left common carotid arteries. The both arteries were ligated with two pieces of Sugita brain aneurysm clip (standard type; MIZUHO) to stop blood flow for 5 min, and the blood was circulated again. During ischemic loading, brain temperature and body temperature were maintained constant (37±0.2° C.). Each mouse was distinguished and housed in a nursery cage after coming out of anesthesia to breed, allowing the animals to freely intake water and food. After one week, the mice were fixed while perfusing with saline containing 0.2% heparin (Novo Heparin Injection 100; Japan Hoechet Marion Russell LTD) and 4% paraformaldehyde solution, and beheaded. The brain was excised using scissors, and immersed in 4% paraformaldehyde fixative for one day. The rear portion from 2 mm ahead of the bregma was divided into three using a double-edged razor (Feather). These sections were further fixed for 24 hours. Tissues containing dorsal hippocampus were dehydrated and penetrated, and embedded with paraffin.
A 5 μm section, from 0.5 to 1.0 mm from the tip of the hippocampus or from 1.4 to 1.9 mm behind the sagittal suture was prepared from this paraffin block and observed by the TUNEL method (In situ Apoptosis Detection Kit, TaKaRa). The results are shown in FIG. 8 (×25) and FIG. 9 (×100).
(2) By following the method described in (1), MK solution (0.063 μg, 0.125 μg, 0.25 μg, 0.5 μg, 1 fig, or 2 μg), was injected into the ventricle just before development of ischemic injury to examine protective effects of MK on delayed neuronal death. Seven days after the injury, the CA1 region were stained with hematoxylin-eosine. Micrographs in low magnification (×25) are shown in FIG. 10 (FIG. 10a: saline, FIG. 10b: Sham-op, FIG. 10c: MK 2 μg, FIG. 10d: MK 1 μg, FIG. 10e: MK 0.5 μg, FIG. 10f: MK 0.25 μg), and those in high magnification (×100) in FIG. 11 (FIG. 11a: saline, FIG. 11b: Sham-op, FIG. 11c: MK 2 μg, FIG. 11d: MK 1 vg, FIG. 11e: MK 0.5 vg, FIG. 11f: MK 0.25 μg).
For quantitative evaluation, the numbers of surviving nuclei contained in the CA1 region per unit length of CA1 were obtained (FIG. 12). The values were 18±25/mm(n=15, mean±standard deviation) for the saline administration group and 265±38 /mm (n=23) for the Sham-op group. For the 0.5, 1, or 2 μg MK administration groups, the values were 217±109 (n=7), 228±84 (n=8), and 243±82 (n=10), respectively. The values decreased when MK concentration was low (FIG. 12). There was a significant difference between the saline administrated group and MK administrated (0.5 to 2 μg MK) groups (ANOVA and post-hoc Fisher's PLSD teat, p<0.0001).
Whether the effect of MK administration (2 μg) continues was examined. […]

B1: MK: midkine, a heparin-binding growth and differentiation factor; human MK protein (SEQ ID NO: 3; or recombinant, secreted by yeast) (protein, UniProt P21741 21-143, looked up)
Midkine: VAKKKDKVKKGGPGSECAEWAWGPCTPSSKDCGVGFREGTCGAQTQRIRCRVPCNWKKEFGADCKYKFENWGACDGGTGTKVRQGTLKKARYNAQCQETIRVTKPCTPKTKAKAKAKKGKGKD
- nuclei in CA1 region, hematoxylin-eosine, high magnification (0.25 μg MK into the ventricle just before ischemic injury, seven days after): Deteriorated nuclei were observed
- numbers of surviving nuclei contained in the CA1 region per unit length of CA1 (0.5 μg MK just before ischemia, seven days after): 217±109 /mm
- number of nuclei showing apoptosis positive reaction (TUNEL) against the total number of cells (0.5 μg MK just before ligation, seven days after): 7.8±19.8
- numbers of surviving nuclei contained in the CA1 region per unit length of CA1 (1 μg MK just before ischemia, seven days after): 228±84 /mm
- number of nuclei showing apoptosis positive reaction (TUNEL) against the total number of cells (1 μg MK just before ligation, seven days after): 11.0±14.7
- numbers of surviving nuclei contained in the CA1 region per unit length of CA1 (2 μg MK just before ischemia, seven days after): 243±82 /mm
- number of nuclei showing apoptosis positive reaction (TUNEL) against the total number of cells (2 μg MK just before ligation, seven days after): 4.6±12.2
- numbers of neurocytes in CA1 (four weeks after ischemia): 157±60 cells/mm
- numbers of neurocytes in CA1 (one week after ischemia): 219±74 cells/mm
- numbers of neurocytes in CA1 (three weeks after ischemia): 185±83 cells/mm
- numbers of neurocytes in CA1 (two weeks after ischemia): 152±72 cells/mm
- nuclei in CA1 region, hematoxylin-eosine, high magnification (0.5 to 2 μg MK into the ventricle just before ischemic injury, seven days after): survived circle nuclei were observed
- TUNEL stained nuclei in hippocampal region CA1 (0.5 to 2 μg MK just before ligation, seven days after): Few stained nuclei were observed
- activity against delayed neuronal death (28 days after the injury): showed a significant activity
- cells containing TUNEL reaction positive nuclei and atrophied neurocytes in hippocampal region CA1 (MK injected into the ventricle before 5 min ischemia, one week after): such neurocytes were not observed
